This note sets out measurements from the DeepSol protein solubility set.

The nature of this data set: soluble on expression in E. coli; label from the status in PepcDB or PDB records.
For “AHHHHHHGSITRGRVWKFGDNISTDAITPGRYNLTKDPNELAKIAFIEERPEFSKEVKPGDVVVGGKNFGIGSSRESAALALKAAGVGGVIAKSFGRIFFRNAVNLGLPLLIGNTDPLLDGEIVEVNWRSGEVKKEDGEVLKFKPLDSFLLAIVEEGGIIEYIRRRGDLWIQ”, the “soluble on expression in E. coli” value is recorded as “soluble”.

On to “AHHHHHHGSKEIVERVKTKTKIPVYERSVENVLSAVLASDDIWRIVDLSEEPLPLVVAILESLNELGYVTFEDGVKLTEKGEELVAEYGIGKRYDFTCPHCQGKTVDLQAFADLLEQFREIVKDRPEPLHEFDQAYVTPETTVARVILMHTRGDLENKDIFVLGDDDLTSIALMLSGLPKRIAVLDIDERLTKFIEKAANEIGYEDIEIFTFDLRKPLPDYALHKFDTFITDPPETLEAIRAFVGRGIATLKGPRCAGYFGITRRESSLDKWREIQKLLLNEFNVVITDIIRNFNEYVNWGYAEETRAWKLIPIKKLPEYNWYKSYMFRIETLEGSRGYEDEIPEEDIYNDEESSTT”, for which the “soluble on expression in E. coli” value is listed as “soluble”.

In the case of “AHHHHHHGSKFNEFKTPQIDPIFDLYVAYGYVESLIRGGAKEATLIPHGASYLIQTDVSNEEFRHGLVDALSEMLSLHIALARHSPREGGKLVSDADFSAGANINNVYWDSVPRNLEKVMKDLEKKRSVKGTATIPITLMPSAGKYMLKHFGVQGGNPIKVDLLNYALAWVGFHYYTPYIKYAKGDTTWIHIYQIAPVEEVDMISILSLKDLKMHLPHYYESNLDFLINRRLALLYHLLHSESLGALELFTEKEFVIHSYTLERSGNNQAIRSFEEEEIGKLMDFLWKLKRRDFYHAIKFIDDLLKKATEGALALIDAIMNERLEGFYTALKLGKKAGVVSSREIVAALEDIICER”, the “soluble on expression in E. coli” value was “not soluble”.

Consider “AHHHHHHGSKVEKGDVIRLHYTGKVKETGEIFDTTYEDVAKEARIYNPNGIYGPVPIAVGAGHVLPGLDKRLIGLEVKKKYVIEVPPEEGFGLRDPGKIKIIPLGKFRKSGIIPYPGLEIEVETENGRKMRGRVLTVSGGRVRVDFNHPLAGKTLVYEVEVVEKIEDPIEKIKALIELRLPMIDKDKVIIEISEKDVKLNFKDVDIDPKTLILGEILLESDLKFIGYEKVEFEPTIEELLKPKSAEEQESPNEEQQEESESKAEES”, for which the “soluble on expression in E. coli” value is given as “not soluble”.

For the sequence “AHHHHHHGSLGRLARWLRLYGYDTLYGIEDDNEILRIAEEEGRIILTRDVELYRQAQVRNLRAILITSNSFEEQVKQLMMERVEFSELFPENARCPKCNGVIRSAKKEEVKGKVPENVYNSYNEFYICTSCGQIYWPGRQWREMLKMDKKIKANKL”, the “soluble on expression in E. coli” value is listed as “soluble”.

With “AHHHHHHGSPVYEINGIKPKIHPTAYVDENAVIIGDVVLEEKTSVWPSAVLRGDIERIYVGKYSNIQDNVSIHTSHGYPTEIGEYVTIGHNAVVHGAKIGNYVIIGMGAIILDGAKIGNHVIIGAGALVPPNKEIPDYSLVIGVPGKVVRQLSEEEIEWTKKNAEVYVELAEKHMKGRKKIMIYRIISHIPSIFFKPAYDLYERYLLEKVKAGVIPKHVAIIMDGNRRWARKREKPPWYGHFFGSKKLEEIVEWCHELGIRILTVYAFSTENFKRSKEEVDRLMKLFEEKFRELVTDRRVHEYGIRVNVMGRKELLPKNVREAAEEAERVTRKYNNYFLNIALAYGGRSEIVDAIKDIVNDVLEGRLKLEDINEEIVRKYLYVPNMPDPDIVIRTGGEVRISNFLLYQIAYSELFFVDVYFPEFRKIDFLRIIREFQKRERRFGR”, the “soluble on expression in E. coli” value was “soluble”.

As for “AHIVYDDVRDLKAIIQALLKLVDEALFDIKPEGIQLVAIDKAHISLIKIELPKEMFKEYDVPEEFKFGFNTQYMSKLLKAAKRKEEIIIDADSPEVVKLTLSGALNRVFNVNNIEVLPPEVPEVNLEFDIKATINASGLKNAIGEIAEVADTLLISGNEEKVVVKGEGENKVEVEFSKDTGSLADIEFNKESSSAYDVEYLNDIISLTKLSDYVKVAFADQKPMQLEFNMEGGGKVTYLLAPKLS”, the “soluble on expression in E. coli” value is “soluble”.

As to “AIAAYRGLHALSQPAYLEDFINSVSNLPQELRDKYGRMGELDALVQRLKNEADALVRELLRKPGSSDPDRGRDTTSLQQMGTKLEQLQAQCVKLNQEKLQLAETAYNTVDQHVRDLDTKLREYEAYLRREGQWPDDLQSLVVNTDHTKMASMKNAAAAAAAAHTAAAPATTARSTQKAPSKGQRKSGEPSTLHIMDDMPIDPNEPRYCYCQNVSYGQMVACESGDCPYEWFHFECVGLTEPPKGEWICPDCRARTGRVR”, the “soluble on expression in E. coli” value is recorded as “soluble”.

In the case of “AIAENSSKEDYKIQSFDLETQKLLKTALKDPGSVDLEKVSSVIVDQSLKDQVFSREAGRICYTIVQAEAKQTNGSVFRRNLLNRLQQEFKAREETRKRSTQEWVCLVSFICNIFDYLKVNNMPMVALVHPVYDCLFRLAQSDALKNEEEVDCLVLQLHRIGDQLEKMNVQLMDELFNLLRDGFLLQEDLSSMGRLLLLEILEFRAGGWKLSDTAQKYYYSEVTD”, the “soluble on expression in E. coli” value is “soluble”.

For the sequence “AIAEPGSPAGAGAEAPAFYSERKLSRKQLKKLAKAEREYEEERRKELEAAQAVDTAQKRELARIESILRTHALRMEYVEPDGHCLFRALVRQLRPLIQSGLFDTYFPAADTETRSALLTWSTIPDEMEAVWLLRKTLASFIRRRGTEFFPFIVGELDPQGTLLDASDDPAERVAQYCARLEDGTLWGGQPELQAVALALRCRVFVFADPEILPNGMLVMGADDASTDTGAESVTALRVSFHKQFFSLGEHYHAVVPADDSRGDARDPRISAS”, the “soluble on expression in E. coli” value is recorded as “soluble”.

Take “AIAERSFVWLSCLDSDSCNLTFRLGEVESHACSPSLLWNLLTQYLPPGAGHILRTYNFPVLSCVSSCHLIGGKMPEN”: the “soluble on expression in E. coli” value is listed as “soluble”.

With “AIAKLTDSVLRSFRVAKVFRENSDKINCFDFSSNGETVISSSDDDSIVLYDCQEGKPKRTLYSKKYGVDLIRYTHAANTVVYSSNKIDDTIRYLSLHDNKYIRYFPGHNKRVVALSMSPVDDTFISGSLDKTIRLWDLRSPNCQGLMHLQGKPVCSFDPEGLIFAAGVNSEMVKLYDLRSFDKGPFATFKLQYERTCEWTGLKFSNDGKLILVSTNGGTLRVLDAFKGAVLHSFGGYNNSKGVILEAPFTPDSQFIMIGSEDGKIHVWNAESGMKVALLDGKHTGPVTCLQFNPKFMTFASACSNMAFWLPTIDD”, the “soluble on expression in E. coli” value is “soluble”.

Regarding “AIATLEKKEYGAPGFWPGSMIGRVHAFETPAPLTRAQLDRLRDEFFETRTEGHLEIWTAIRAASHAQEAGDDELAYAIITAVGILPAEVGPAGEGLGERIPFAEQPLDRLLGMICGCCFPAFTRYRTLERVYDQRGFLYETPKECIATPSNVLPDESTEASAR”, the “soluble on expression in E. coli” value is “soluble”.

As to “AIAYASETASTQGLPALELDPEELLAQVQLLRAAVEGSRRESRELVGALERERRLNLEMRQRFERQFAAVSDQLLQLNHLQKESEALLQSLQEQLNEAELQKNAAQRELACVQRQLSLARAEADAGKRVLTTIAEKEALLRKTSQANADLQQIVMHLQAELRNSELQPSTSNASEERLHEAEIPSLADRDAYQTLQQTIEKLSAERDMWYHECARAKEESLRLQQDAERLRGLLDEQQRVHTTTQTLLQDRHLLMRRIIAALAEKYLMEKLPNQHYTQEIDSSPFQARGGTSVQEAHKHERLRRARSF”, the “soluble on expression in E. coli” value was “soluble”.

As for “AIRVADLLQHITQMKCAEGYGFKEEYESFFEGQSAPWDSAKKDENRMKNRYGNIIAYDHSRVRLQTIEGDTNSDYINGNYIDGYHRPNHYIATQGPMQETIYDFWRMVWHENTASIIMVTNLVEVGRVKCCKYWPDDTEIYKDIKVTLIETELLAEYVIRTFAVEKRGVHEIREIRQFHFTGWPDHGVPYHATGLLGFVRQVKSKSPPSAGPLVVHCSAGAGRTGCFIVIDIMLDMAEREGVVDIYNCVRELRSRRVNMVQTEEQYVFIHDAILEACL”, the “soluble on expression in E. coli” value is recorded as “soluble”.

Consider “AISGAKKYFYMQTPYFLPTEQILGAMQTAALAGVDIRLMLPEHADNRVTHLGSCSYLADVLRAGVKVYFYKKGFLHSKLMVSDDMLSTVGSTNLDFRSFEHNFEVNAFMYDMETALQMREIFLQDQRESTQIFLKSWEKRSSRQKAMESVVRLLAPLL”, for which the “soluble on expression in E. coli” value is listed as “not soluble”.

On to “AKIDNAVLPEGSLVLVTGANGFVASHVVEQLLEHGYKVRGTARSASKLANLQKRWDAKYPGRFETAVVEDMLKQGAYDEVIKGAAGVAHIASVVSFSNKYDEVVTPAIGGTLNALRAAAATPSVKRFVLTSSTVSALIPKPNVEGIYLDEKSWNLESIDKAKTLPESDPQKSLWVYAASKTEAELAAWKFMDENKPHFTLNAVLPNYTIGTIFDPETQSGSTSGWMMSLFNGEVSPALALMPPQYYVSAVDIGLLHLGCLVLPQIERRRVYGTAGTFDWNTVLATFRKLYPSKTFPADFPDQGQDLSKFDTAPSLEILKSLGRPGWRSIEESIKDLVGSETA”, for which the “soluble on expression in E. coli” value is listed as “soluble”.

Turning to “AKQAAQSTFNSFHEWAKQAEAMRNPSRMDIYKIYKQDAPHSHPMSDEQQEEFLHTLKALNGKNGIEVRTQDHDSVRNKKDRNLDKYIAESPDAKRFFYRIIPKHERREDKNQGRLTIGVQPQYATQLTRAMATLIGKESAITHGKVIGPACHGQMTDSAVLYINGDVAKAEKLGEKLKQMSGIPLDAFVEHTPLSMQSLSKGLSYAESILGDTRGHGMSRAEVISDALRMDGMPFLARLKLSLSANGYDPDNPALRNTK”, the “soluble on expression in E. coli” value is on record as “soluble”.

Turning to “ALEGTEFARAQLSEAMTLASGLKTKVSDIFSQDGSCPANTAATAGIEKDTDINGKYVAKVTTGGTAAASGGCTIVATMKASDVATPLRGKTLTLTLGNADKGSYTWACTSNADNKYLPKTCQTATTTTP”, the “soluble on expression in E. coli” value is reported as “soluble”.

With “ALSAKLTLDKVDLKGKRVIMRVDFNVPMKNNQITNNQRIKAAIPSIKHCLDNGAKSVVLMSHLGRPDGIPMPDKYSLEPVADELKSLLNKDVIFLKDCVGPEVEQACANPDNGSIILLENLRFHVEEEGKGKDSSGKKISADPAKVEAFRASLSKLGDVYVNDAFGTAHRAHSSMVGVNLPQKASGFLMKKELDYFSKALEKPERPFLAILGGAKVKDKIQLIKNMLDKVNFMIIGGGMAYTFLKELKNMQIGASLFDEEGATIVKEIMEKAEKNGVKIVFPVDFVTGDKFDENAKVGQATIESGIPSGWMGLDCGPESIKINAQIVAQAKLIVWNGPIGVFEWDAFAKGTKALMDEVVKATSNGCVTIIGGGDTATCCAKWGTEDKVSHVSTGGGASLELLEGKILPGVEALSNM”, the “soluble on expression in E. coli” value was “soluble”.

In the case of “AMAKGVGVSNEKLDAVMRVVSEESGIALEELTDDSNFADMGIDSLSSMVIGSRFREDLGLDLGPEFSLFIDCTTVRALKDFMLGSGDAG”, the “soluble on expression in E. coli” value is “soluble”.

With “AMEDELKILIGKMRYRSSFGQNALQHSKEVALLAGLIAEQLGGDKKLARRAGILHDIGKALTQELGRDHVNLGVEVCKRHKEDPVVINAIYAHHGHEEILSVECASVCAADALSAGRPGARRKSDEEYAKRMQALEEIALEFDGVEKAYAMESGRELRVIVKSNQ”, the “soluble on expression in E. coli” value was “not soluble”.

On to “AMGSATISRRGILVIRHGERVDQVFGKSWLQQCTTADGKYYRPDLNFPRSLPRRSNGIKDFENDPPLSSCGIFQARLAGEALLDSGVRVTAVFASPALRCVQTAKHILEELKLEKKLKIRVEPGIFEWMKWEASKATLTFLTLEELKEANFNVDLDYRPALPRCSLMPAESYDQYVERCAVSMGQIINTCPQDMGITLIVSHSSALDSCTRPLLGLPPRECGDFAQLVRKIPSLGMCFCEENREDGKWDLVNPPVKTLTHGANSVFNWRNWIS”, for which the “soluble on expression in E. coli” value is recorded as “soluble”.
